According to patent US20240352144A1 (UNIVERSIT TSKLINIKUM HAMBURG EPPENDORF, published 2024):

Tests used:
human CD39 (gene ID 953) [1] = molecular target: T1, human CD39 (gene ID 953) (human, UniProt P49961 5-510); experiment: flow cytometry binning on human CD39-expressing cells; competitor: Fam. 3 human IgG hcAb (SB134) in excess
T1 construct: Cell-surface form: transiently or stably transfected HEK cells, PBMCs, AML cell lines; also called native CD39; human CD39 transfected HEK cells
T1 sequence: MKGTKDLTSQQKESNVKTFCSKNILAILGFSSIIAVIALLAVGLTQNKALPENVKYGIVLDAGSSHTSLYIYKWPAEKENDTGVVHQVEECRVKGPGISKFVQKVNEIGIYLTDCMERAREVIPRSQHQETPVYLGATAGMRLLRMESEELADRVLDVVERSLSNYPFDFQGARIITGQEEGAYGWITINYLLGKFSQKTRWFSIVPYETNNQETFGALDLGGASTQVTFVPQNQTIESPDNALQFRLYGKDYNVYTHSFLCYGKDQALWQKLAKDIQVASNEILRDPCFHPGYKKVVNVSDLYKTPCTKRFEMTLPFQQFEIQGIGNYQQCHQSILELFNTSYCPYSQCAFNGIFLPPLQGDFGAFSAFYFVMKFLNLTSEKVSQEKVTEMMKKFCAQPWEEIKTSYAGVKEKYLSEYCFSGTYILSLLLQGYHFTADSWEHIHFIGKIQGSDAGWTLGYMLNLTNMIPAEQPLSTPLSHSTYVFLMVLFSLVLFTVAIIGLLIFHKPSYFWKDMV

human CD39 (gene ID 953) [2] = molecular target: T1, human CD39 (gene ID 953); experiment: flow cytometry binning on human CD39-expressing cells; competitor: Fam. 5 human IgG hcAb (SB136) in excess
human CD39 (gene ID 953) [3] = molecular target: T1, human CD39 (gene ID 953); experiment: flow cytometry binning on human CD39-expressing cells; competitor: Fam. 2 human IgG hcAb in excess
human CD39 (gene ID 953) [4] = molecular target: T1, human CD39 (gene ID 953); experiment: flow cytometry binning on human CD39-expressing cells; competitor: human IgG hcAb SB24 (Fam. 1) in excess
[5] = molecular target: T2, mouse CD39 (gene ID 12495) (mouse, UniProt P55772 1-510); experiment: Table 1 specificity; sorted by binding to human (h) and/or mouse (m) CD39
T2 construct: whole, on cells; also called murine CD39; mouse CD39 transfected HEK cells
T2 sequence (looked up): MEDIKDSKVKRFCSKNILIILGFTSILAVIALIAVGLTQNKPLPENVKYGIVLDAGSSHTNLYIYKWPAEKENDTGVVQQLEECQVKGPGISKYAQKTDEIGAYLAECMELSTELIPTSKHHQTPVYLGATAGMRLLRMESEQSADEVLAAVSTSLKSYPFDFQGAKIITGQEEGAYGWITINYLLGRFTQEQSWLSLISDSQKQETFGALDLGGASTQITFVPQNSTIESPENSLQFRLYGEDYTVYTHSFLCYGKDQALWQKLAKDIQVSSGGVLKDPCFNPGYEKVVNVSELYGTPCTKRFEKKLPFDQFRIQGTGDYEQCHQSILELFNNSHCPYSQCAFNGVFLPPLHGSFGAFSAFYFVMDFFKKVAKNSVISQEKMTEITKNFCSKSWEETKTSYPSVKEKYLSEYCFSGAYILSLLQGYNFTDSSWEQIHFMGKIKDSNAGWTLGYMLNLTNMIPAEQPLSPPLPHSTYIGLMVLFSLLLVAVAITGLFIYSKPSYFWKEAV

[6] = molecular target: recombinant human CD39 ectodomain with C-terminal His6x tag (human) (UniProt P49961); experiment: BLI (Octet RED96), rabbit IgG hcAb on protein A biosensor, recombinant CD39 ectodomain as analyte at 200 ng/µl
[7] = molecular target: T2, mouse CD39 (gene ID 12495); experiment: Table 1 specificity; binding to human (h) and/or mouse (m) CD39
human CD39 (gene ID 953) [8] = molecular target: T1, human CD39 (gene ID 953); experiment: as above
human CD39 (gene ID 953) [9] = molecular target: T1, human CD39 (gene ID 953); experiment: flow cytometry, rabbit IgG hcAb supernatant on transfected HEK cells
[10] = molecular target: recombinant human CD39 ectodomain with C-terminal His6x tag (human) (UniProt P49961); experiment: BLI (Octet RED96), rabbit IgG hcAb on protein A biosensor, recombinant CD39 ectodomain as analyte

Molecule	percent inhibition of binding (human CD39 (gene ID 953) [1]) [%]	percent inhibition of binding (human CD39 (gene ID 953) [2]) [%]	percent inhibition of binding (human CD39 (gene ID 953) [3]) [%]	percent inhibition of binding (human CD39 (gene ID 953) [4]) [%]	binding result [5]	koff [6] [s⁻¹]	binding result [7]	binding result (human CD39 (gene ID 953) [8])	binding result (human CD39 (gene ID 953) [9])	koff [10] [s⁻¹]
monoclonal antibody against CD39, clone eBioA1	5	75	8	17	–	–	–	–	–	–
SB137 rabbit IgG hcAb (Fc fusion, not shown: a dimerising Fc or GST, also called s- 17; family 6) VHH: QVKLQESGGGLGQAGGSLRLSCSASARTSATYVMGWFRQAPGKEREFVATISRSTSTTYYGDSVKGRFTISRDNAKNAVYLQMNSLKPEDTAVYYCATRAPRYGTASTRLSDYDNWGQGTQVTVSS	95	39	93	-11	no binding	–	–	–	–	–
SB134 rabbit IgG hcAb (Fc fusion, not shown: a dimerising Fc or GST, also called l- 5a; family 3) VHH: QVKLQESGGGWVQPGGSLRLSCAASGFTFRTHFMSWVRQAPGQGLEWVSGITSGGRTSYVDSVKGRFTISRDNAANTLYLQMNSLKPEDTAVYFCTKGDSGARGQGTQVTVSS	58	41	–	15	no binding	0.012	–	–	–	–
SB39 rabbit IgG hcAb (Fc fusion, not shown: a dimerising Fc or GST, also called l- 11; family 7) VHH: QVQLVESGGGLVQPGGSLRLSCAASGFTLDYFAIGWFRQGPGKERDWVSCISKDGTTYYIDSVKGRFTISRDNAKNTGYLQMSGLKPDDTAVYYCARGAGGCQSDFGARGQGTQVTVSS	96	91	98	39	–	–	binds	–	–	–
SB32 rabbit IgG hcAb (Fc fusion, not shown: a dimerising Fc or GST, also called l- 14d; family 10) VHH: QVQLVESGGGLVQAGGSLRLSCAVSKRTSTHYAMGWFRQAPGLVREFVGVINWNGGTTYYADSVKGRFFISRDNAKNTMALQMNNLKPEDTAVYYCALKVDGLGLTSNEYQHWGQGTQVTVSS	–	–	–	–	–	–	binds	binds	–	–
SB112 rabbit IgG hcAb (Fc fusion, not shown: a dimerising Fc or GST, also called l- 14c; family 9) VHH: QVQLQESGGGLVQAGGSLRLSCTASGRSFSSNAMGWFRQAPGKEREFVARINWSGSRTFYTDSVKGRFTISRDNAKNTMYLQMNSLKPEDTAVYYCAADPNYGSSITSGYTYWGQGTQVTVSS	–	–	–	–	–	–	binds	binds	–	–
SB90 rabbit IgG hcAb (Fc fusion, not shown: a dimerising Fc or GST, also called s+ 17; family 8) VHH: QVQLVESGGGLVQAGGSLRLSCAVSGLNNYAIGWLRQAPGKEREGVSCINCFDDFTYYADSVKGRFTVSCDNANHTVNLEMNSLRPEDTAVYYCAAGTCGSWWRYTPTPADGAWGRGTQVTVSS	–	–	–	–	–	–	binds	binds	–	–
SB126 rabbit IgG hcAb (Fc fusion, not shown: a dimerising Fc or GST, also called family 2) VHH: QVQLVESGGGLVQAGDSLRLSCAASGRIPVTTTTAWFRQAPGKEREFVAAIRWNSGDAAYADSAKGRFTISRDSAKNTLYLQMNNLEPEDTAVYYCAAKYSRYAPQSTDYDYWGQGTQVTVSS	–	–	–	–	–	0.048	–	–	binds	–
SB128 rabbit IgG hcAb (Fc fusion, not shown: a dimerising Fc or GST, also called l- 14b; family 2) VHH: QVQLVESGGGLVQAGDSLRLSCAASGRTPITTTTGWFRQAPGKEREFVAAIRWDSGNTNYADSAKGRFTISRDSAKNLLYLQMTNLKPEDTAVYYCAAKYSRYLPQSTDYDYWGQGTQVTVSS	88	42	86	14	no binding	0.011	–	–	–	–
SB129 rabbit IgG hcAb (Fc fusion, not shown: a dimerising Fc or GST, also called family 2) VHH: QVQLVESGGGLVQAGDSLRLSCAASGRTPITTTTGWFRQAPGKEREFVAAIRWNSGDAAYADSAKGRFTISRDSAKNTLYLQMNNLEPEDTAVYYCAAKYSRYAPQSTDYDYWGQGTQVTVSS	–	–	–	–	–	0.052	–	–	binds	0.05
SB127 rabbit IgG hcAb (Fc fusion, not shown: a dimerising Fc or GST, also called family 2) VHH: QVQLVESGGGLVQAGDSLRLSCAASGRIPVTTTTAWFRQAPGKEREFVAAITWNSGNTNYADSAKGRFTISRDSAKNTLYLQMNNLKPEDTAVYYCAAKYSRYNLQSTDYDYWGQGTQVTVSS	–	–	–	–	–	0.028	–	–	binds	–
SB136 rabbit IgG hcAb (Fc fusion, not shown: a dimerising Fc or GST, also called s- 12; family 5) VHH: DVQLQASGGGLVQPGGSLRLSCAASGFRFSIYDMSWVRRPPGKGLEWVSSITSPGGTTYADSVKGRFTISRDNDKNTLYLQMNSLKPEDTAIYYCAKAYGGRSVVAQTARGQGTQVTVSS	0	75	16	-11	no binding	0.0012	–	–	–	–
SB135 rabbit IgG hcAb (Fc fusion, not shown: a dimerising Fc or GST, also called l- 15; family 4) VHH: QVKLQESGGGLVQAGGSLRLSCTASEESFNKYGVGWFRQAPGKERAFVVAIRPSGVITSYADSVKGRFTISRDSAKNTAYLQMNSLKPEDTALYYCAANSRNTNYYRPNGYDYWGRGTQVTVSS	53	37	46	9	no binding	0.03	–	–	–	–
SB27 rabbit IgG hcAb (Fc fusion, not shown: a dimerising Fc or GST, also called family 1) VHH: QVQLVESGGGLVQPGGSLRLSCAASGSIFSFNAMGWYRQAPGKQRELVAAITSGGSTNYADSVKGRFTISRDNAKNTVYLQMNSLKPEDTAVYYCNGIGGSTWFGEDEYDYWGQGTQVTVSS	–	–	–	–	–	0.0031	–	–	binds	–
SB130 rabbit IgG hcAb (Fc fusion, not shown: a dimerising Fc or GST, also called family 1) VHH: QVQLVESGGGSVQPGGSLKLSCAASGSISSINAMGWYRQAPGKQRELVAAITSGGYTNYADSVKGRFTISRDNAKNTVYLQMNSLKPEDTAVYYCNAIGGSTWFGEDEYDNWGQGTQVTVSS	–	–	–	–	–	0.0015	–	–	binds	–
SB132 rabbit IgG hcAb (Fc fusion, not shown: a dimerising Fc or GST, also called family 1) VHH: QVQLVESGGGLVQPGGSLRLSCAASGSIFNFNAMGWYRQASGKQRELVAAITSGGSTNYADSVKGRFTISRGNAKNTVYLQMNSLKPEDTAVYYCHGIGGSTWFGEEEYDSWGQGTQVTVSS	–	–	–	–	–	0.0011	–	–	binds	–
SB131 rabbit IgG hcAb (Fc fusion, not shown: a dimerising Fc or GST, also called family 1) VHH: QVQLVESGGGLVQPGGSLRLSCAASESIVSFNAMGWYRQAPGKQRDLVAAITSGGRTNYAESVKGRFTISRDDAKNTVYLQMNSLKPEDTAVYYCHAIGGSTWFGEDEPDYWGQGTQVTVSS	–	–	–	–	–	0.00084	–	–	binds	–
SB24 rabbit IgG hcAb (Fc fusion, not shown: a dimerising Fc or GST, Bivalent VHH-Fc heavy chain antibody; also called l- 14a; family 1) VHH: QVQLVESGGGLVQPGGSLRLSCAASGSIFSFNAMGWYRQAPGKQRELVAAITSGGNTNYADSVKGRFAISRDNAKNTVYLQMSSLKPEDTAVYYCKGIGGSTWFGEDEPDYWGQGTQVTVSS	40	53	39	99	no binding	0.00099	–	–	–	–
